Here are results for one substance from publication PMC5299624.

Common to all, as to assay: ITC
A general note: Isothermal titration calorimetry measures the heat released or taken up as one component is titrated into another.

The target in test [1] is human NaV1.5 C-terminal domain (CTD), amino acids 1773-1940, wild type (human) (UniProt Q14524).
Test [2] addresses human NaV1.5 CTD (1773-1940) Y1795H (human) (UniProt Q14524).
The target in test [3] is human NaV1.5 CTD (1773-1940) R1913H (human) (UniProt Q14524).
The target in test [4] is human NaV1.6 C-terminal domain (CTD), amino acids 1769-1926, wild type (human) (UniProt Q9UQD0).
The target of test [5] is human NaV1.2 CTD (1777-1937) R1918H (human) (UniProt Q99250).
Test [6] addresses human NaV1.2 C-terminal domain (CTD), amino acids 1777-1937, wild type (human) (UniProt Q99250).
In test [7] the target is human NaV1.5 CTD (1773-1940) L1917K (human) (UniProt Q14524).
Test [8] addresses human NaV1.2 CTD (1777-1937) H1853R (human) (UniProt Q99250).
For test [9], the target named is human NaV1.5 CTD (1773-1940) Q1909R (human) (UniProt Q14524).
For test [10], the target named is human NaV1.5 CTD (1773-1940) Y1795C (human) (UniProt Q14524).
The target in test [11] is human NaV1.5 CTD (1773-1940) D1790G (human) (UniProt Q14524).

One may read the stoichiometry N as a count of units in the complex or per binding partner. On to “calmodulin (CaM) (from UniProt P0DP23 1-149) (natural protein)”, for which the dH in [1] is -10.5 kcal/mol; in test [2] it was -10.2 kcal/mol; in test [4] it was -17.5 kcal/mol; in test [5], -7.5 kcal/mol; in [6], -4.54 kcal/mol; in [7], -9.8 kcal/mol. Moreover, the dH is -8.3 kcal/mol in test [8], -14.9 kcal/mol in test [9], -7.43 kcal/mol in [10] and -10.5 kcal/mol in test [11]. The stoichiometry N is 0.76 in [2]; 0.73 in test [3]; 1.02 in test [6]; 0.98 in [7]; 0.92 in [10]; 0.25 in test [11].
